The subject of data set [1] is T47D human ductal breast epithelial tumor cell line. Description: Flow cytometric binding and internalization assay, T47D. Type of data set: cell-based. The conditions noted are these: malignant. As for the experimental part: (§1) In illustrating a screening process for internalization, from clones selected for further analysis from the selection process, a flow cytometric-based assay for binding and/or internalization was utilized. Typically, the assay was performed by incubating 200 nM of each clone with 5×10^5 target cells in 100 ul PBS containing 0.5% bovine serum albumin (BSA) in a 13 mm tube for 2 hours @ 37° C. A first portion of the cells was then treated with RNAse to remove any of the clone remaining bound to the surface of the cells, so as to allow detection and quantitation of internalized clone (i.e., measuring internalization). In parallel, a second portion of the cells was treated with PBS containing 0.5% BSA (lacking added RNase activity to enzymatically cleave […]), so as to allow detection and quantitation of clone remaining bound to the cell surface, as well as internalized clone (i.e., measuring binding and internalization). […] Additionally, fluorescence of unstained cells was measured, as a control, to quantitate any background fluorescent properties of the cells themselves as encountered in analyses by flow cytometry (“Unstained”), as opposed to fluorescent signal mediated by the RNA molecules further modified to include Alexa 647. […] The units of fluorescence in Table 5 represent mean fluorescence (“Mean”). […]
(In general: In flow cytometry, cells or beads pass a laser one at a time.)

The test system of data set [2] is MCF7 human breast adenocarcinoma. Description: Flow cytometric binding and internalization assay, MCF7. Format: cell-based. As to conditions: MCF7, malignant. On the procedure: as §1
In data set [3] the test system is HCC1143 human, triple negative, breast carcinoma. Description: Flow cytometric binding and internalization assay, HCC1143. Type of data set: cell-based. As to conditions: HCC1143, malignant. On the procedure:
as §1

In data set [4] the test system is DU145 human prostate cancer, metastatic. Briefly: Flow cytometric binding and internalization assay, DU145. Format: cell-based. The conditions noted are these: DU145, malignant. On the procedure: as §1
For data set [5], the system named is human prostate cancer cell line PC-3. Briefly: Flow cytometric-based screening assay for internalization in PC-3 cells. Format: cell-based. On the procedure:
In illustrating a screening process for internalization, from clones selected for further analysis from the selection process, a flow cytometric-based assay for binding and/or internalization was utilized. Typically, the assay was performed by incubating 200 nM of each clone with 5×10^5 target cells in 100 ul PBS containing 0.5% bovine serum albumin (BSA) in a 13 mm tube for 2 hours @ 37° C. A first portion of the cells was then treated with RNAse to remove any of the clone remaining bound to the surface of the cells, so as to allow detection and quantitation of internalized clone (i.e., measuring internalization). In parallel, a second portion of the cells was treated with PBS containing 0.5% BSA (lacking added RNase activity to enzymatically cleave […]), so as to allow detection and quantitation of clone remaining bound to the cell surface, as well as internalized clone (i.e., measuring binding and internalization). Following further washes with phosphate-buffered saline, the cells were fixed in 1% formaldehyde and then subjected to analysis on a flow cytometer using commercially available analysis software. In performing analyses by flow cytometry, several assay controls were used. As an assay control representing either no or background (e.g., non-specific) internalization, an RNA molecule resulting from a selection process for binding a molecule not detectably expressed on target cells was used. The assay control RNA molecule was further modified with Alexa 647, and then used for further characterization of clones from the selection process described herein. For ease of description and reference for this Example, this assay control RNA molecule is referred to herein as Negative Control 1 (see, e.g., Table 5). As an additional assay control that represents either no or background internalization, used was an RNA molecule from the starting library which was chosen from the library prior to beginning a selection method described herein, and that was further modified with Alexa 647. This assay control RNA molecule is referred to herein as Negative Control 2 (see, e.g., Tables 5, 7, and 8). Additionally, fluorescence of unstained cells was measured, as a control, to quantitate any background fluorescent properties of the cells themselves as encountered in analyses by flow cytometry (“Unstained”), as opposed to fluorescent signal mediated by the RNA molecules further modified to include Alexa 647. Shown in Table 5 are the results of analyses by flow cytometry in which measured and quantitated was the ability of clones, selected on the basis of sequence convergence, to internalize into target cells represented by human prostate cancer cell line PC-3. The units of fluorescence in Table 5 represent mean fluorescence (“Mean”). The fold increase (determined by dividing the mean fluorescence of a clone by the mean fluorescence of unstained cells) is an indicator of the ability of a clone, or a clone which has been further modified to include an effector moiety, to internalize into the target cells (Table 5; “Fold Increase”).
The truncations, illustrated in Table 6, were each further modified with a detectable moiety, Alexa 647, and analyzed by a flow cytometric-based screening assay for internalization using the methods outlined in Example 2, to determine minimal sequences that maintain the full ability to internalize into human prostate cancer cells. Shown in Table 7 are the results of analyses by flow cytometry in which measured and quantitated was the ability of each truncation to internalize into target cells represented by human prostate cancer cell line PC-3. The units of fluorescence in Table 7 represent mean fluorescence intensity (“Mean”). […]

Data set [6] deals with HCC1937 human, triple negative, primary breast carcinoma. Description: Flow cytometric binding and internalization assay, HCC1937. Type of data set: cell-based. As to conditions: HCC1937, malignant. As for the experimental part:
as §1

The subject of data set [7] is PBMC (unstim) human, unstimulated peripheral blood mononuclear cells. Briefly: Flow cytometric binding and internalization assay, PBMC. Type of data set: cell-based. The conditions noted are these: nonmalignant. On the procedure: as §1
Data set [8] has as its system A431 human epidermoid carcinoma. Description: Flow cytometric binding and internalization assay, A431. The conditions noted are these: A431, malignant. Type of data set: cell-based. On the procedure: as §1
The subject of data set [9] is HS578T Human, triple negative, highly metastatic breast carcinoma. Description: Flow cytometric binding and internalization assay, HS578T. Format: cell-based. The conditions noted are these: malignant. On the procedure:
as §1

Data set [10] deals with LNCaP lymph node metastatic lesion of human prostate adenocarcinoma. Description: Flow cytometric binding and internalization assay, LNCaP. The conditions noted are these: malignant. Type of data set: cell-based. As for the experimental part:
as §1

The subject of data set [11] is 22Rv1 Human prostate xenografts in mice. Description: Flow cytometric binding and internalization assay, 22Rv1. Type of data set: cell-based. As to conditions: 22Rv1, malignant. As for the experimental part:
as §1

For data set [12], the system named is K562 human chronic myelogenous leukemia. Description: Flow cytometric binding and internalization assay, K562. Type of data set: cell-based. As to conditions: K562, malignant. On the procedure: as §1
Data set [13] relates to A549 human lung adenocarcinoma. Description: Flow cytometric binding and internalization assay, A549. Type of data set: cell-based. The conditions noted are these: A549, malignant. As for the experimental part: as §1
Data set [14] concerns PrEC human primary prostate epithelial cells. Briefly: Flow cytometric binding and internalization assay, PrEC. Type of data set: cell-based. The conditions noted are these: nonmalignant. As for the experimental part:
as §1

Data set [15] deals with human primary mammary epithelial cells. Description: Flow cytometric binding and internalization assay, mammary epithelial cells. Format: cell-based. As to conditions: nonmalignant. As for the experimental part: as §1
The test system of data set [16] is WIL-2 B lymphoblastoid cell line transformed with Epstein Barr virus. Briefly: Flow cytometric binding and internalization assay, WIL-2. The conditions noted are these: WIL-2, transformed cells. Type of data set: cell-based, human. As for the experimental part: as §1
Data set [17] deals with SKBR3 human breast adenocarcinoma. Briefly: Flow cytometric binding and internalization assay, SKBR3. Type of data set: cell-based. The conditions noted are these: SKBR3, malignant. On the procedure: as §1
The mark [18] stands for this setting: Table 7, truncations modified with Alexa 647, PC-3.

In the oligonucleotide strings, read from the 5' end, every base follows the letter of its sugar. An asterisk marks phosphorothioate; unmarked linkages are phosphodiester. Other units and linkages are bracketed, terminal groups are in braces. A string of capitals states the bases alone. r = 2'-OH (RNA); f = 2'-fluoro

B1: GGGAGGACGAUGCGGUACUUUCGGGCUUUCGGCAACAUCAGCCCCUCAGGACGCAAUUUCUCCUACUGGGAUAGGUGGAUUAU (nucleic acid)
chain: rGrGrGrArGrGrAfCrGrAfUrGfCrGrGfUrAfCfUfUfUfCrGrGrGfCfUfUfUfCrGrGfCrArAfCrAfUfCrArGfCfCfCfCfUfCrArGrGrAfCrGfCrArAfUfUfUfCfUfCfCfUrAfCfUrGrGrGrAfUrArGrGfUrGrGrAfUfUrAfU
modifications: Alexa 647 label via hybridized DNA oligo, further chemistry not fully specified
notes: tested hybridized to Alexa647 DNA oligo
In the case of B1, the Fold increase in data set [1] is recorded as 25.8; in data set [2] it was 31.0; in data set [3], 2.1; in [4], 6.1; in data set [5] (Table 9, PC3, malignant) it was 9.4; in data set [6], 11.8. In addition, the Fold increase in data set [7] is 2.4; in [8], 6.9; in data set [9], 9.8; in [10], 6.1; in data set [11], 14.8; in data set [12] it was 23.2. In addition, the Fold increase in data set [13] was found to be 3.7; in data set [14], 2.6; in [15], 5.7; in data set [16], 20.6; in data set [17] it was 14.3. For the same molecule, the “internalization into cells (conclusion from Table 5)” value in [5] (PC-3, in words) is “mediate internalization into cells”. Further, the “Fold Increase (mean fluorescence of clone / unstained cells)” value in data set [5] (Table 5, 200 nM Alexa 647-modified clone, 2 hours @ 37° C., PC-3) was 8.3. In addition, the “Mean (mean fluorescence)” value in data set [5] (Table 5, 200 nM Alexa 647-modified clone, 2 hours @ 37° C., flow cytometry, PC-3) is 665. Besides, the “Fold increase (mean fluorescence intensity / unstained cells)” value in data set [5] (setting [18]) is reported as 11.3. For the same molecule, the “Mean (mean fluorescence intensity)” value in data set [5] (setting [18]) was found to be 907.

For the origin of these results see patent US10059950B2, “Compositions comprising an internalizing nucleic acid molecule, and their methods of use” (B3 BIO, INC., priority 2012, dated 2018).
